Test results taken from the supplement of paper PMC9732359.
± gives the uncertainty stated by the source.

Assay: protein stability index of a GFP-peptide fusion (yeast GPS) (PSI 1-4); higher = more stable; sorted into four equal gates, so the index is relative within each strain
Method in brief: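 Yeast carrying a pooled library were grown to mid-log phase in leucine-free medium. Each library plasmid expresses Cherry and has a tiled 17-residue yeast protein peptide fused downstream of GFP. Cells were sorted into four equal gates by GFP/Cherry ratio, and plasmids from each gate were PCR-amplified, Illumina-sequenced and assigned to strains by barcode. Summing, across gates, the read frequency times the gate number gave each peptide's protein stability index.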

Row | Sequence | protein stability index (doa10∆) | protein stability index (pdr5∆) | protein stability index (san1∆) | protein stability index (ubr1∆)
1 | EILVLYNVCDTSKSLVK [SIN4] | 2.3 ± 0.05 | 2.88 ± 0.046 | 2.56 ± 0.058 | 2.97 ± 0.057
2 | EINETEFIRCGCLIKNL [RMP1] | 2.48 ± 0.11 | 2.98 ± 0.096 | 2.82 ± 0.099 | 2.91 ± 0.055
3 | EIPEGVTVSIKSRIVKV [RPL9B] | 1.29 ± 0.055 | 1.45 ± 0.075 | 1.44 ± 0.27 | 1.35 ± 0.11
4 | EIRAKEYKTSSDSLGPD [SRB2] | 2.81 ± 0.087 | 2.87 ± 0.058 | 3.04 ± 0.053 | 2.98 ± 0.06
5 | EISISFDVNNIDMHLIY [YDL116W/NUP84] | 1.94 ± 0.082 | 2.43 ± 0.093 | 2.02 ± 0.089 | 2.25 ± 0.057
6 | EISLKAHCILGIGGDHA [RPC40] | 1.16 ± 0.18 | 1.3 ± 0.16 | 1.28 ± 0.3 | 
7 | EISPQDSIASVLSPDSN [GAL11] | 1.99 ± 0.064 | 2.34 ± 0.062 | 2.98 ± 0.087 | 2.64 ± 0.055
8 | EIVSDVKVVDAGNKVGQ [RPP0] |  | 3.59 ± 0.2 |  | 
9 | EIVWTSSLIKAGLDKGI [RPO31] | 1.92 ± 0.047 | 1.96 ± 0.061 | 2.54 ± 0.05 | 1.57 ± 0.057
10 | EKAVEEKPAVKSYASLL [RPT3] | 2.89 ± 0.06 | 3.02 ± 0.053 | 2.92 ± 0.052 | 2.96 ± 0.049
11 | EKDFCTSCLQNNNQKID [SRB8] | 3.13 ± 0.09 | 3.29 ± 0.13 |  | 2.93 ± 0.055
12 | EKGLNELSIRDVTHTLG [SMC4] | 1.34 ± 0.14 | 2.42 ± 0.092 | 2.48 ± 0.17 | 1.57 ± 0.1
13 | EKIKMKLKQGQKLFVQV [GAL11] | 2.85 ± 0.13 | 3.2 ± 0.09 | 3.28 ± 0.074 | 3.23 ± 0.14
14 | EKKAASAKQTAPNNSNG [MED7] | 2.94 ± 0.15 | 3 ± 0.13 | 2.95 ± 0.14 | 2.41 ± 0.24
15 | EKKAEYFAKLREYLEEY [RPP0] | 3.44 ± 0.092 | 3.31 ± 0.088 | 3.05 ± 0.067 | 3.54 ± 0.099
16 | EKKGIVQASVTSSTHER [RET1] | 3.28 ± 0.19 | 3.1 ± 0.23 | 3.45 ± 0.15 | 3.24 ± 0.11
17 | EKLKQFSWISVVNDLVG [SIR3] | 1.61 ± 0.052 | 1.99 ± 0.058 | 1.53 ± 0.08 | 1.55 ± 0.034
18 | EKLNKTDENTPSADGAD [ITC1] | 3.35 ± 0.098 | 3.29 ± 0.061 | 3.01 ± 0.054 | 3.05 ± 0.05
19 | EKLTLVTLSEIYNELSY [CSN9] | 1.48 ± 0.047 | 1.66 ± 0.036 | 1.57 ± 0.073 | 1.49 ± 0.046
20 | EKNGGLGWDLDAIIPFA [FAS2] | 3.14 ± 0.098 | 3.22 ± 0.13 | 3.28 ± 0.066 | 3.08 ± 0.068
21 | EKNYDRKEPPATVEECV [PRE6] | 3.3 ± 0.14 | 3.29 ± 0.12 | 3.11 ± 0.079 | 3.3 ± 0.072
22 | EKQIEELLDNCIETFVA [SRB6] | 2.62 ± 0.13 |  | 3.19 ± 0.16 | 3.32 ± 0.12
23 | EKSPDPTIRSNAVLGLG [YCS4] | 2.38 ± 0.052 | 2.26 ± 0.054 | 2.3 ± 0.074 | 2.53 ± 0.043
24 | EKVRDYENSISKDLRSV [IRR1] | 2.25 ± 0.093 | 1.98 ± 0.094 | 1.82 ± 0.082 | 2.03 ± 0.051
25 | ELAKEAKKSTTISKEST [ESC2] | 2.55 ± 0.13 | 2.47 ± 0.14 | 2.63 ± 0.21 | 2.85 ± 0.063
26 | ELDQFWQEYSSVFKGGM [SRP14] | 2.68 ± 0.073 | 2.66 ± 0.079 | 2.86 ± 0.098 | 3.13 ± 0.081

Row | Sequence | protein stability index (doa10∆) | protein stability index (pdr5∆) | protein stability index (san1∆) | protein stability index (ubr1∆)
27 | ELEGSFNKSAELSRIEN [YCS4] | 2.58 ± 0.13 | 3.22 ± 0.23 | 3.12 ± 0.087 | 3.11 ± 0.12
28 | ELEMIGGTNEDDFTDAI [YCS4] |  | 3.2 ± 0.18 | 3.39 ± 0.069 | 3.7 ± 0.19
29 | ELEQLSSEALEAARICA [RPL10] | 1.21 ± 0.071 | 1.35 ± 0.059 | 1.33 ± 0.14 | 1.12 ± 0.06
30 | ELESMLEDLKNTKEIAV [RRP6] | 2.18 ± 0.08 | 2.27 ± 0.051 | 2.33 ± 0.063 | 2.61 ± 0.044
31 | ELFKDYKPGSITLENIT [MED1] | 2.53 ± 0.067 | 2.36 ± 0.053 | 1.96 ± 0.062 | 2.11 ± 0.042
32 | ELGTAVGKLFRVGVVSI [RPL30] | 1.31 ± 0.13 | 1.17 ± 0.1 | 1.27 ± 0.23 | 1.29 ± 0.095
33 | ELIIDPLFKKALVDFDE [BRN1] | 3.45 ± 0.16 | 2.98 ± 0.14 | 3.01 ± 0.24 | 3.29 ± 0.13
34 | ELKTRDATNTSYKMIQL [SWP82] | 3.39 ± 0.1 | 3.5 ± 0.078 | 3.16 ± 0.059 | 3.29 ± 0.047
35 | ELLANKCPLLVEVDITL [GRR1] | 1.44 ± 0.06 | 1.58 ± 0.047 | 1.59 ± 0.082 | 1.47 ± 0.041
36 | ELLNADHQHILRKLKKM [RPC53] | 1.13 ± 0.059 | 1.24 ± 0.063 | 1.11 ± 0.15 | 1.28 ± 0.046
37 | ELLSSLEGKGSLEEIIA [RPP2B] | 2.27 ± 0.08 | 2.24 ± 0.061 | 2.63 ± 0.052 | 1.92 ± 0.064
38 | ELNVEKLNTFNLQTFTH [SRP72] | 2.48 ± 0.2 | 2.33 ± 0.15 | 1.9 ± 0.13 | 2.42 ± 0.15
39 | ELSDNEENFEATRTLVA [YCG1] | 3.13 ± 0.12 | 3.09 ± 0.096 | 2.89 ± 0.14 | 3.04 ± 0.081
40 | ELSDSWRAHDSSIVAID [YGL100W/SEH1] | 2.9 ± 0.084 | 2.72 ± 0.11 | 3.24 ± 0.054 | 2.8 ± 0.08
41 | ELTKNPNSNVELAGGNA [SMC1] |  | 3.01 ± 0.15 | 3.32 ± 0.086 | 3.37 ± 0.12
42 | ELVDMAGAGEANGTVVS [MTR3] | 2.98 ± 0.12 | 3.11 ± 0.14 |  | 3.05 ± 0.087
43 | ELVKAHLGERAASVIGM [RPC82] | 2.55 ± 0.29 | 2.77 ± 0.28 | 2.57 ± 0.22 | 2.52 ± 0.086
44 | EMDEKSYEKNEDHVEDH [LIN1] | 3.3 ± 0.11 | 3.35 ± 0.089 | 3.49 ± 0.086 | 3.14 ± 0.052
45 | EMINEQKLPQYIIQGSN [RGR1] |  | 2.96 ± 0.27 |  | 3.15 ± 0.2
46 | EMIRGRSPEEIRRTFNI [SKP1] |  |  |  | 2.34 ± 0.28
47 | EMKIGSIESKLEEHKNH [SMC1] | 3.03 ± 0.15 | 3.22 ± 0.16 | 2.96 ± 0.18 | 3.01 ± 0.099
48 | ENELFNDRKQTTVSNDL [SSN2] | 2.74 ± 0.16 | 3.14 ± 0.079 | 3.11 ± 0.06 | 3.02 ± 0.081
49 | ENEVSDIDVTIVSKEYE [ESC2] | 3.08 ± 0.13 | 2.19 ± 0.098 | 3.09 ± 0.081 | 1.96 ± 0.066
50 | ENHNGQSISNENDVKPI [SWI3] | 2.07 ± 0.054 | 1.83 ± 0.051 | 2.48 ± 0.069 | 2.48 ± 0.045
51 | ENHNKGKLWKDVKARIA [QCR9] | 2.77 ± 0.14 | 3.07 ± 0.19 | 3 ± 0.13 | 2.83 ± 0.12
